According to publication doi:10.1101/2022.05.18.492403 (bioRxiv, 2022):

Molecular target: the molecule itself
Assay: crystal structure

Protein	stoichiometry N
truncated C-terminal StrepII-tagged ScSbtB protein (SbtB-Δ104) (domain or fragment, Synechocystis sp. PCC 6803, UniProt P73954 1-104, looked up) MAKPANKLVIVTEKILLKKIAKIIDESGAKGYTVMNTGGKGSRNVRSSGQPNTSDIEANIKFEILTETREMAEEIADRVAVKYFNDYAGIIYICSAEVLYGHTF	3
C-terminal StrepII-tagged ScSbtB C105A+C110A variant (natural protein, Synechocystis sp. PCC 6803) MAKPANKLVIVTEKILLKKIAKIIDESGAKGYTVMNTGGKGSRNVRSSGQPNTSDIEANIKFEILTETREMAEEIADRVAVKYFNDYAGIIYICSAEVLYGHTFAGPEGA	3
